The experiment addresses T1, B. subtilis Acyl Carrier Protein Synthase (ACPS), holo-[acyl carrier protein] synthase (B. subtilis, UniProt P96618 3-121, limits assumed).
T1 construct: A trimer of ACPS was the molecular replacement probe; three ACPS molecules per asymmetric unit; also called A1; B1
T1 sequence: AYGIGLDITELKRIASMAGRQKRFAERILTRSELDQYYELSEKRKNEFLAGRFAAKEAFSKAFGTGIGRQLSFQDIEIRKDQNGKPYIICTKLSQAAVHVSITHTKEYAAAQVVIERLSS
The experiment is described as follows: gel filtration of the mixed proteins, complex purified and crystallized. The procedure: Crystallization of ACPS with ACP Purified ACP and ACPS were mixed at a 1:1.1 molar ratio and the mixture was loaded onto a gel filtration column. The resulting purified complex was dialyzed against a solution containing 50 mM Bis-Tris pH 6.4, 100 mM NaCl, 10 mM MgCl_2, and 10 mM DTT before concentrating the complex to ~10 mg/mL. Crystallization conditions for the ACP/ACPS complex were also determined using the sparse matrix screens available from both Hampton Research and Emerald Biostructures. Screens were set up with 2 μL drops at both 18° C. and 4° C. Optimization of a crystalline hit (0.2M Potassium Formate, 20% PEG 3350) gave diffraction quality rod shaped crystals. Crystals could be obtained between 0.15M and 0.3M Potassium Formate and between 15 and 23% PEG 3350. The rate of growth seriously affected the quality of crystals with the optimal crystals being formed between 8 and 12 days after setup. The crystals were grown with a 1:2 drop ratio of protein to well solution at 18° C. These crystals belonged to space group C222_1 with unit cell parameters a=78.46, b=122.03, c=136.77 Å and contained three molecules of ACPS and three molecules of ACP in the asymmetric unit.
Background: Size exclusion chromatography separates by hydrodynamic size, large species first.

B1: B. subtilis Acyl Carrier Protein (ACP), holo form (other)
chain: GPLGSADTLERVTKIIVDRLGVDEADVKLEASFKEDLGADSLDVVELVMELEDEFDMEISDEDAEKIATVGDAVNYIQNQQ
modifications: phosphopantetheinyl group attached to the O-gamma of Ser-36
notes: also called holo-ACP; AP1
Turning to B1, the binding result is given as “binds”.

Values taken from US7135319 (Pfizer, dated 2006).
